We go through 34 sequences from the Immune Epitope Database (IEDB).

The target in one assay is HLA-B*58:01. Briefly: IEDB peptide-MHC binding, purified MHC/direct/fluorescence; filed as Kd, often an IC50 or EC50 that approximates it; ≥ and ≤ were set here for values at or beyond the usual limits of such assays.
For the next assay, the target named is HLA-A*69:01. The assay is described as above.
The target in another assay is HLA-A*02:01. The assay is described as above.
The target of a further assay is HLA-A*02:02. Briefly: IEDB peptide-MHC binding, purified MHC/competitive/radioactivity; filed as Kd, often an IC50 or EC50 that approximates it; ≥ and ≤ were set here for values at or beyond the usual limits of such assays.
For a further assay, the target named is HLA-A*02:03. The assay is described as above.
Another assay addresses HLA-A*02:06. The description is as above.
[1] abbreviates: source organism: Mammarenavirus lassaense.
Where [2] appears, read: source organism: Escherichia coli O157:H7.
The mark [3] stands for this setting: source organism: SARS coronavirus Tor2.
[4] abbreviates: source organism: Vaccinia virus WR.
The mark [5] stands for this setting: source organism: Vaccinia virus Copenhagen.
[6] abbreviates: source organism: Bacillus anthracis.
Setting [7] is: source organism: Lymphocytic choriomeningitis virus (strain Armstrong).

As for STAIELGAW, in the assay with HLA-B*58:01 (setting [1]), the Kd (usually the free concentration of one partner at which half of the binding sites on the other are occupied at equilibrium, for simple one-to-one binding) worked out at 13.3 nM.

Consider VLFIHPLDA, for which the figures for the Kd with HLA-A*69:01 (setting [2]) and in the assay with HLA-A*02:01 (setting [2]) were not below 20000 nM and 64.9 nM, respectively.

Sequence TLKDAMLQL gave a Kd with HLA-A*02:01 (setting [1]) of 116 nM.

With MVMCGGSLYV, the Kd with HLA-A*02:02 (setting [3]) is 15.1 nM; with HLA-A*02:03 (setting [3]) it was 10.3 nM; with HLA-A*02:06 (setting [3]), 13.2 nM.

Regarding TLLCVLAALV, the results for the Kd with HLA-A*02:02 (setting [3]), with HLA-A*02:03 (setting [3]) and in the assay with HLA-A*02:06 (setting [3]) were 4.61 nM, 77.4 nM and 64.6 nM, respectively.

Take FTILEYLYIM: the Kd is 355 nM with HLA-A*02:02 (setting [4]), 3200 nM with HLA-A*02:03 (setting [4]) and 40.5 nM in the assay with HLA-A*02:06 (setting [4]).

Regarding YVSPTEMVDV, the Kd in the assay with HLA-A*02:02 (setting [4]) amounted to 63.3 nM; with HLA-A*02:03 (setting [4]) it was 49.8 nM; with HLA-A*02:06 (setting [4]) it was 5.16 nM.

As to TIAHINTLI, the Kd with HLA-A*02:02 (setting [4]) came out at 21.4 nM; in the assay with HLA-A*02:03 (setting [4]) it was 20 nM; with HLA-A*02:06 (setting [4]), 571 nM.

As to GVSGLYIPGT, the Kd with HLA-A*02:02 (setting [4]) worked out at 140 nM; in the assay with HLA-A*02:03 (setting [4]), 2150 nM; with HLA-A*02:06 (setting [4]), 31.7 nM.

Take SVDIETAIRA: the Kd with HLA-A*02:02 (setting [4]) came out at 2830 nM; with HLA-A*02:03 (setting [4]), 7620 nM; with HLA-A*02:06 (setting [4]), 1030 nM.

As to FVATFRDMLL, the results for the Kd with HLA-A*02:02 (setting [4]), with HLA-A*02:03 (setting [4]) and with HLA-A*02:06 (setting [4]) were 0.697 nM, 17.6 nM and 4.36 nM, respectively.

On to ATCALVSDCA, for which the results for the Kd in the assay with HLA-A*02:02 (setting [4]), with HLA-A*02:03 (setting [4]) and with HLA-A*02:06 (setting [4]) were not below 34700 nM, not below 23400 nM and 9140 nM, respectively.

Consider VIIMAINVFT, for which the equilibrium dissociation constant (Kd) is 320 nM with HLA-A*02:02 (setting [4]), 820 nM in the assay with HLA-A*02:03 (setting [4]) and 674 nM with HLA-A*02:06 (setting [4]).

For LMELPVKTDI, the Kd amounted to 1510 nM with HLA-A*02:02 (setting [4]), 986 nM with HLA-A*02:03 (setting [4]) and 12900 nM in the assay with HLA-A*02:06 (setting [4]).

For QQNNSFIIST, the Kd worked out at 7000 nM with HLA-A*02:02 (setting [4]), 5040 nM with HLA-A*02:03 (setting [4]) and 5710 nM in the assay with HLA-A*02:06 (setting [4]).

ILGTVSWNL: the Kd is not below 22900 nM with HLA-A*69:01 (source organism: SARS-CoV1), 382 nM with HLA-A*02:01 (source organism: SARS-CoV1) and 804 nM with HLA-B*58:01 (source organism: SARS-CoV1).

Consider CVSNLDISSV, for which the Kd with HLA-A*02:02 (setting [4]) turned out to be 51.8 nM; in the assay with HLA-A*02:03 (setting [4]), 2.3 nM; in the assay with HLA-A*02:06 (setting [4]), 47.9 nM.

Consider YVVIVENDNV, for which the Kd worked out at 2330 nM with HLA-A*02:02 (setting [4]), 11000 nM with HLA-A*02:03 (setting [4]) and 59.7 nM in the assay with HLA-A*02:06 (setting [4]).

Take LIAGIILLIL: the values for the Kd with HLA-A*02:02 (setting [5]), in the assay with HLA-A*02:03 (setting [5]) and with HLA-A*02:06 (setting [5]) were 141 nM, 680 nM and 345 nM, respectively.

As for PTIEDDKIVT, the Kd in the assay with HLA-A*02:02 (setting [4]) is 13800 nM; in the assay with HLA-A*02:03 (setting [4]), not below 20600 nM; in the assay with HLA-A*02:06 (setting [4]), not below 69800 nM.

Take PLHIVCSKTV: the Kd with HLA-A*02:02 (setting [4]) was not below 34500 nM; with HLA-A*02:03 (setting [4]), 5270 nM; with HLA-A*02:06 (setting [4]), not below 27000 nM.

As to PMSRLFMDEI, the Kd is 1930 nM with HLA-A*02:02 (setting [4]), 726 nM with HLA-A*02:03 (setting [4]) and 4370 nM in the assay with HLA-A*02:06 (setting [4]).

For NVDVGCLLT, the values for the Kd with HLA-A*02:02 (setting [4]), in the assay with HLA-A*02:03 (setting [4]) and in the assay with HLA-A*02:06 (setting [4]) were 9850 nM, 14000 nM and not below 64500 nM, respectively.

In the case of KMNNDVFFM, the Kd with HLA-A*69:01 (setting [6]) worked out at 618 nM; with HLA-A*02:01 (setting [6]) it was 2.3 nM.

For the sequence VIPFDDIVRT, the figures for the Kd with HLA-A*02:02 (setting [4]), in the assay with HLA-A*02:03 (setting [4]) and with HLA-A*02:06 (setting [4]) were not below 62700 nM, not below 50300 nM and 18200 nM, respectively.

With FSLGAAVKA, the figures for the Kd with HLA-A*02:02 (setting [7]), with HLA-A*02:03 (setting [7]) and with HLA-A*02:06 (setting [7]) were 6460 nM, 13300 nM and 327 nM, respectively.

As for NTISGNIYSA, the values for the Kd with HLA-A*02:02 (setting [4]), in the assay with HLA-A*02:03 (setting [4]) and in the assay with HLA-A*02:06 (setting [4]) were 269 nM, 314 nM and 393 nM, respectively.

Consider VMDTLNGIMM, for which the Kd with HLA-A*02:02 (setting [4]) stood at 7.64 nM; with HLA-A*02:03 (setting [4]), 5160 nM; with HLA-A*02:06 (setting [4]), 403 nM.

Consider NITHTNITTL, for which the Kd is 10400 nM in the assay with HLA-A*02:02 (setting [4]), 5020 nM in the assay with HLA-A*02:03 (setting [4]) and 8170 nM with HLA-A*02:06 (setting [4]).

For the sequence FLYIIKLVFL, the Kd in the assay with HLA-A*02:02 (setting [3]) was found to be 7.28 nM; with HLA-A*02:03 (setting [3]), 22.4 nM; with HLA-A*02:06 (setting [3]), 865 nM.

For the sequence FLNRFTTTL, the Kd with HLA-A*02:02 (setting [3]) turned out to be 0.659 nM; with HLA-A*02:03 (setting [3]), 1.02 nM; with HLA-A*02:06 (setting [3]) it was 58.1 nM.

In the case of ALKNSQAEL, the Kd with HLA-A*02:02 (setting [4]) is 70.9 nM; in the assay with HLA-A*02:03 (setting [4]), 16.8 nM; with HLA-A*02:06 (setting [4]), not below 32900 nM.

As for TINVNSLAL, the figures for the Kd in the assay with HLA-A*02:02 (setting [4]), with HLA-A*02:03 (setting [4]) and with HLA-A*02:06 (setting [4]) were 1980 nM, 1540 nM and 2180 nM, respectively.

GIKGLDERFV: the Kd in the assay with HLA-A*02:02 (setting [4]) worked out at 6190 nM; with HLA-A*02:03 (setting [4]) it was 844 nM; in the assay with HLA-A*02:06 (setting [4]) it was 940 nM.
